Laboratory results published in article PMC11470957, “Principles of paralog-specific targeted protein degradation engaging the C-degron E3 KLHDC2” (Nature Communications, 2024).

B1: KLHDC2 substrate binding domain (KLHDC2^SBD, 15-361) [not stated] / BRD3^BD2 (second bromodomain of BRD3, residues 306-416) [not stated] (parent)
chain 1: GPAFESYESMELACPAERSGHVAVSDGRHMFVWGGYKSNQVRGLYDFYLPREELWIYNMETGRWKKINTEGDVPPSMSGSCAVCVDRVLYLFGGHHSRGNTNKFYMLDSRSTDRVLQWERIDCQGIPPSSKDKLGVWVYKNKLIFFGGYGYLPEDKVLGTFEFDETSFWNSSHPRGWNDHVHILDTETFTWSQPITTGKAPSPRAAHACATVGNRGFVFGGRYRDARMNDLHYLNLDTWEWNELIPQGICPVGRSWHSLTPVSSDHLFLFGGFTTDKQPLSDAWTYCISKNEWIQFNHPYTEKPRLWHTACASDEGEVIVFGGCANNLLVHHRAAHSNEILIFSVQP
chain 2: GKLSEHLRYCDSILREMLSKKHAAYAWPFYKPVDAEALELHDYHDIIKHPMDLSTVKRKMDGREYPDAQGFAADVRLMFSNCYKYNPPDHEVVAMARKLQDVFEMRFAKMP

Variants of: B1
Assay: ITC
Conditions: with BRD3^BD2 (second bromodomain of BRD3, residues 306-416); syringe: R56A KLHDC2SBD; cell: BRD3BD2-SJ46421 (ternary complex via PROTAC SJ46421); n = 2

Kd	Variant
273 nM	chain 1 R42A

Same assay, conditions: with KLHDC2 substrate binding domain (KLHDC2^SBD, 15-361); syringe: KLHDC2SBD; cell: E344G BRD3BD2-SJ46421 (ternary complex via PROTAC SJ46421); n = 2

Kd	Variant
181 nM	chain 2 E39G
